Measurements reported in the nanobody polyreactivity screen of Harvey et al. (2022).

test: yeast display, Sf9 membrane polyspecificity reagent, FACS + sequencing; frameworks hold sequencing errors
Method in brief: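 Sorting gates, low and high (top ~1%), were placed on anti-HA fluorescence to track expression and on streptavidin fluorescence to track reagent binding. A clone's polyreactivity label is taken from the gate it came out of. The reagent was 10% biotinylated, detergent-solubilized Sf9 membrane, applied for 1 hour at 4 °C to galactose-induced yeast display cells.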

Sequence	polyreactivity (PSR sort gate)
QVQLVESGGGLVQAGGSLRLSCAASGFTFDSYAMGWYRPAPGKERELVAAITSDGSTYYADSVKGRFTISRDNAKNTVYLQMNSLKPEDTAVYYCAARSTARYGYWGQGTQVTVSS	low polyreactivity
QVQLVESGGGLVQAGGSLRLSCAASGSTFSSNAMGWYRQAPGKERELVAAISKRGGRTYYADSVKGRFTISRDNAKNTVYLQMNSLKPEDTAVYYCAKDYSSAVDYWGQGTQVTVSS	high polyreactivity
QVQLVESGGGLVQAGGSLRLSCAASGITFSHYAMGWYRQAPGKERELVAGITWSGGRTYYADSVKGRFTISRDNAKNTVYLQMNSLKPEDTAVYYCAPIHRTGYDMDYWGQGTQVTVSS	low polyreactivity
QVQLVESGGGLVQAGGSLRLSCAASGRIFGFYAMGWYRQAPGKERELVAVITYRDGRTYYADSVKGRFTISRDNAKNTVYLQMNSLKPQDTAVYYCAADRGVYDPGDYWGQGTQVTVSS	low polyreactivity
QVQLVESGGGLVQAGGSLRLSCAASGRTFRYYAMGWYRQAPGKERELVATSTGSGGSTYYADSVKGRFTISRDNSKNTVYLQMNSLKPEDTAVYYCNARKVRYPYRWYDYWGQGTQVTVSS	high polyreactivity
QVQLVESGGGLVQAGGSLRLSWAASGITFRKNAMGWYRQAPGKERQLVATITRRGGSTFYADSVKGRFTISRDNANNTVYLQFKSLKPVDSAVYYFAADYATRDGDYESWGQGTQVTVSS	high polyreactivity
QVQLVESGGGLVQAGCSLRLSCAASGSTLYTYAMGWYRQAPGKERELVATISWSGSSTYYADSVKGRFTISRDNAKNTVYLQMNSLKPEDTAVYYCAAQYHYWYRLDYWGQGTQVTVSS	high polyreactivity
QVQLVESGGGLVQAGGSLRLSCAASGRTFGGYVMGWYRQAPGKESELVATITDSGGSTHYADSVKGRFTISRDNAKNTVYLQMNSLKPEDTAVYYCARRRSYRYPSEYNYWGQGTQVTVSS	high polyreactivity
QVHLVESAGGLVQAAASLRLTCSASGNTLGSYAMGWYIQAPGKETKFVATISKRGGSTYYADSVKGRFTISRDNAKNTVYFQMNSLKPEDSAVYYCAAEDEYYGGDEYWGQGTQVTVSS	high polyreactivity
QDQLVESGGGLVQAGGSLRLSCSASGRIFTRNTMGWYRQAPGKERELVAAITSRGGSTYYADSVKGRFTISRDNAKNTVYLQMNSLKPEDTAVYDCAADKPRSYYYWGQGTQVTVSS	high polyreactivity
QVQLVESGGGLVQAGGSLRLSCAASGRIFSRYAMGWYRQAPVKERELVADITYNGGSTYYADSVKGRFTISRDNAKHTVYLQMNSLQPDDTAVYYCNAVEVLDEGWGFWYYYWGQATQVTVSS	high polyreactivity
QVQLVESGGGLVQAGGSLRLSCAASGSTFYYNAMGWYRQAPGKEREFVAANSSRGGSTYYADSVKGRFTISRDNAKNTVYLQMNSLKPEDTAVYYCAADYYVWTPIGVRQYDYWGHGTQVTVSS	high polyreactivity
QVQLVESGGGLVQAGGSLRLSCAASGSICSLYAKGWYRQEPGKERELVAAISSSGTSTYYADSVKGRFTISRDNSKNTVYLQMNSLKLEDTAVYYCNAYRRRATYNGDYWGQGTQLTVSS	high polyreactivity
QVQLVESGGGLVQAGGSLRLSCAASGSTFYGYTMGWYRQAPGKERELVAVITSGGSTYYADSVKGRFTISRDNAKNTVYLQMNSLKPEDTAVYYCAKRYGYPAYGRPCRIGRTYDYWGQGTQVTVSS	low polyreactivity
QVQLVESGGGLVQAGGSLRLSCAASGSIFSQYVMGWYRQAPGNERELVAAIVWSSGSTYYADSVKGRFTMSRDNAKNTVYLQMNSLKPEDTAVYYCAARTKAFKPGYGYWGQGTQVTVSS	low polyreactivity
QVQLVESGGGLVQAGGSLRLSCAASGFIFYRYAMGWYRQAPGKERELVAAISWSGGTTYYADSVKGRFTISRDNAKNTVYLQMNSLKPEDTAVYYCAARSVPSPERGFYYWGQGTQVTVSS	high polyreactivity
